# Experimental data: publication PMC9600339, “Calpain-1: a Novel Antiviral Host Factor Identified in Porcine Small Intestinal Mucus” (mBio, 2022)
# “And” between values parts separate entries of the source, which are not always exact repeats. Equal values may be shown once.
# How the values were obtained:
# [1] = target: porcine calpain-1 (pig (Sus scrofa)) (UniProt P35750); assay: SPR; calpain-1 immobilised on a CM5 chip by amino coupling (8,860 RU); PEDV S1 protein injected at 100 to 0.8 uM; room temperature; running buffer pH 5.4, 25 mM HEPES, 100 mM NaCl, 3 mM EDTA with 5 mM CaCl2; 1:1 Langmuir model; average KD of triplicates
# [2] = target: recombinant S1 protein of PEDV strain CV777 (S1 domain of the spike protein) (porcine epidemic diarrhea virus, …, UniProt Q91AV1 1-1319, Expressed in a prokaryotic system, so not glycosylated. Construct limits are not printed: S1 is taken by convention as ending at residue 789, with the signal peptide 1-25 removed per UniProt.); assay: as above; conditions: both partners purified
Molecule,Kd [1],Kd [2]
protein S1Δb1: PEDV S1 (CV777) lacking the b1 domain (N297 to A337) (from UniProt Q91AV1 1-1319) (domain or fragment),198000 nM,
recombinant S1 protein of PEDV strain OH851 (S1 domain of the spike protein) (domain or fragment),787 nM,
"porcine calpain-1 (enzyme, pig (Sus scrofa), UniProt P35750 1-714, looked up, calpain-1 (catalytic subunit), pig (Sus scrofa); The discussion says in general that calpain-1 is a heterodimer of a catalytic subunit and a regulatory subunit (CAPNS1); also called CAP; p-calpain-1; source: calpain-1 purified from porcine small intestinal mucus fraction III on an antibody column; recombinant p-calpain-1 from HEK 293F, Ni-NTA) MAEEVITPVYCTGVSAQVQKLRAKELGLGRHENAIKYLGQDYEQLRAHCLQSGSLFRDEAFPPVPQSLGFKELGPNSSKTYGVKWKRPTELFSNPQFIVDGATRTDICQGALGDCWLLAAIASLTLNDTLLHRVVPHGQSFQNGYAGIFHFQLWQFGEWVDVVVDDLLPTKDGKLVFVHSAQGNEFWSALLEKAYAKVNGSYEALSGGSTSEGFEDFTGGVTEWYELRKAPSDLYSIILKALERGSLLGCSIDISSVLDMEAVTFKKLVKGHAYSVTGAKQVNYQGQMVNLIRMRNPWGEVEWTGAWSDGSSEWNGVDPYQRDQLRVRMEDGEFWMSFRDFLREFTRLEICNLTPDALKSQRVRNWNTTLYEGTWRRGSTAGGCRNYPATFWVNPQFKIRLEETDDPEDDYGGRESGCSFVLALMQKHRRRERRFGRDMETIGFAVYEVPPELVGQPVHLKRDFFLANASRARSEQFINLREVSTRFRLPPGEYVVVPSTFEPNKEGDFVLRFFSEKKAGTQELDDQVQAILPDEQVLSEEEIDENFKALFRQLAGEDMEISVRELRTILNRIISKHKDLRTKGFSLESCRSMVNLMDRDGNGKLGLVEFNILWNRIRNYLSIFRKFDLDKSGSMSAYEMRMAIESAGFKLNKKLFELIITRYSEPDLAVDFDNFVCCLVRLETMFRFFKTLDTDLDGVVTFDLFKWLQLTMFA",,1070 nM and 2500 nM
